This is an account of results in the supplement of paper PMC9170038.

This series relates to MS2 coat protein. Kind of series: apparent KD of MS2 coat protein; designed switch direction (-1 OFF switch, 1 ON switch): 1; higher = weaker reporter binding. The method, boiled down:
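An oligonucleotide input, 200 uM small-molecule ligand, or no input was present during titration of SNAP-549-labelled MS2 coat protein, which was doubled from 0.7 or 1.5 nM to 3 µM. Designed RNA switches had been transcribed on Illumina chips by stalled E. coli RNA polymerase. Apparent KD per design is the median over clusters of curves fitted to normalised cluster fluorescence.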

[1] abbreviates: input ligand: microRNA oligo, concentration not stated.
[2] abbreviates: Eterna round: R95, input ligand: FMN 200 uM.
Where [3] appears, read: Eterna round: R95, input ligand: microRNA oligo, concentration not stated.
Where [4] appears, read: Eterna round: R95, input ligand: none.

As to “CAGCACUAUCGAGAGGAUAUGCGGUGAUGGACAUGAGGAUCACCCAUGUUAGCGGUAGCAUCACGGCAGAAGGCUCUGCUGCUGC [Soteed Omei mod 39] (Eterna round: R96, puzzle: Same State 2)”, the “apparent KD of MS2 coat protein” value by setting is: (input ligand: FMN 200 uM) 19 nM; under setting [1], 21.5 nM; (input ligand: none) 28.5 nM.

As for “CAGCACUAUCGAGAGGAUAUGCGGUGAUGGACAUGAGGAUCACCCAUGUUAGCGGUAGCAUCACGGCAGAAGGCUCUGCUGCUGC [Soteed Omei mod 39] (puzzle: Same State 2)”, the “apparent KD of MS2 coat protein” value is, setting by setting: under setting [2], 20.4 nM; under setting [3], 28.8 nM; under setting [4], 37.4 nM.

As for “CAGCUCGUGUGAGGAUAUGCCGCCGUUUCGGCUGCAGAAGGUGCUACGUUACAUGAGGAUCACCCAUGUCUCUGUUGUUUCGUU [salish99_SSNG1_r04_950] (Eterna round: R96, puzzle: Same State NG 1)”, the “apparent KD of MS2 coat protein” value under setting [1] was found to be 18.2 nM.

“CAGUACAUUCAAGGAUAUUCUCCAUGGAAAGUAGAAGAAGGUGAAACAUGAGGAUCACCCAUGUAGAAAGGAACAUUCGUACUG [Eternabot solution 34] (Eterna round: R96, puzzle: Same State NG 1)”: the “apparent KD of MS2 coat protein” value (input ligand: FMN 200 uM) was 181 nM, the “apparent KD of MS2 coat protein” value under setting [1] came to 147 nM and the “apparent KD of MS2 coat protein” value (input ligand: none) is 310 nM.

In the case of “CAUCUCCCUUUUACAUGAGGAUCACCCAUGUUUUUAUAUUGAGAGGAUAUCGUAUUUAGAAACAUCGAGAAGGCUCAUUUGUAU [JR_SSNG3_Sub072] (Eterna round: R96, puzzle: Same State NG 3)”, the “apparent KD of MS2 coat protein” value by setting is: (input ligand: FMN 200 uM) 83.2 nM; under setting [1], 89.1 nM; (input ligand: none) 153 nM.

Turning to “CCAACAUACAAUUUAAGAUCACAUGAGGAUCACCCAUGUAUGCAGGAUAUCAGCUCGAUUAGAGCUGAGAAGGGCAAUUUAAUU [SSNG3/1-A2] (Eterna round: R96, puzzle: Same State NG 3)”, the “apparent KD of MS2 coat protein” value by setting is: (input ligand: FMN 200 uM) 89.6 nM; under setting [1], 151 nM; (input ligand: none) 216 nM.

Regarding “CCGAUGCUUAUAAAACAUGAGGAUCACCCAUGUGAGACACAUGAGGAUAUGCAGGUCAAAGACUUGCAGAAGGCAUAGCGUCGG [JL SSNG3 3.88] (Eterna round: R96, puzzle: Same State NG 3)”, under setting [1], the “apparent KD of MS2 coat protein” value was 360 nM.

Regarding “CCGAUGGUAUACUAGGAUAUGGGCGCCCUUACAUGAGGAUCACCCAUGUUUACACAAAUCCGCGGCCAGAAGGAGUUCAUGGGAG [Orgere] (Eterna round: R96, puzzle: Same State 2)”, the “apparent KD of MS2 coat protein” value is 134 nM (input ligand: FMN 200 uM), 85.6 nM under setting [1] and 112 nM (input ligand: none).

Take “CCGAUGUAUGGAGGAUAUGGAGCCUUAUUGGCUCCAGAAGGCUAAUAACAUGAGGAUCACCCAUGUCGGCGGUCUAAUGACCGA [Eli NG1ss - 55] (Eterna round: R96, puzzle: Same State NG 1)”: the “apparent KD of MS2 coat protein” value turned out to be 48.2 nM (input ligand: FMN 200 uM), 49.3 nM under setting [1] and 112 nM (input ligand: none).

Take “CCGGACAUGAGGAUCACCCAUGUCGACGGAUACCCUUGGGCAUAGGAUAUCUGGAAUUAAAAGAAAGAGAAGGGUGAUCCAAGG [Qusoinrege] (Eterna round: R96, puzzle: Same State NG 3)”: the “apparent KD of MS2 coat protein” value (input ligand: FMN 200 uM) turned out to be 23.6 nM, the “apparent KD of MS2 coat protein” value under setting [1] worked out at 40.8 nM and the “apparent KD of MS2 coat protein” value (input ligand: none) came to 40.4 nM.

Take “CCGGAUAAUGGAGGAUAUGGAGCCUUAUUGGCUCCAGAAGGCUAACAUGAGGAUCACCCAUGUUUUCCGGCGGUCAAUAGACCG [Eli NG1ss - 63] (Eterna round: R96, puzzle: Same State NG 1)”: the “apparent KD of MS2 coat protein” value is 10 nM (input ligand: FMN 200 uM), 11.4 nM under setting [1] and 18.2 nM (input ligand: none).

Take “CCGUAAAUGGAAGGAUAUGGAGCCUUAUUGGCUCCAGAAGGUUCAAUAACAUGAGGAUCACCCAUGUCGGCGGUCAAUAGACCG [Eli NG1ss - 79] (Eterna round: R96, puzzle: Same State NG 1)”: the “apparent KD of MS2 coat protein” value is, setting by setting: (input ligand: FMN 200 uM) 15.3 nM; under setting [1], 33.7 nM; (input ligand: none) 41.7 nM.

For the sequence “CCGUAAUAUGGAGGAUAUGGAGCCUUAUUGGCUCCAGAAGGUCAUAAAACAUGAGGAUCACCCAUGUCGGCGGUCAAUAGACCG [Eli NG1ss - 77] (Eterna round: R96, puzzle: Same State NG 1)”, under setting [1], the “apparent KD of MS2 coat protein” value stood at 42.6 nM.

“CCGUUCAAUAAACAUGAGGAUCACCCAUGUGAUAAUAAGGGUGAGGAUAUGCAUCUGAAACAGGUGCAGAAGGCAUAAGAGCGG [JL SSNG3 3.91] (Eterna round: R96, puzzle: Same State NG 3)”: the “apparent KD of MS2 coat protein” value runs as follows: (input ligand: FMN 200 uM) 327 nM; under setting [1], 169 nM; (input ligand: none) 316 nM.

Regarding “CCUUAACAGUGAGGAUAUCGUUGCGAUAAGUGACGAGAAGGCACUCAUGUGAAAUAAACAUACAUGAGGAUCACCCAUGUUGUG [Omei SS(NG)1 Bv5] (Eterna round: R96, puzzle: Same State NG 1)”, the “apparent KD of MS2 coat protein” value (input ligand: FMN 200 uM) amounted to 34.4 nM, the “apparent KD of MS2 coat protein” value under setting [1] turned out to be 40 nM and the “apparent KD of MS2 coat protein” value (input ligand: none) came to 44.2 nM.

“CGAGGCGUACAUGAGGAUCACCCAUGUACCUAACAACAAAGCAAGGAUAUCCUGGCUAUAAUACAGGAGAAGGUGUGGUCCUUA [Eternabot solution 15] (Eterna round: R96, puzzle: Same State NG 3)”: under setting [1], the “apparent KD of MS2 coat protein” value was found to be 107 nM.

Turning to “CGCCGACAUGAGGAUCACCCAUGUGAGCGACUCACAGGAUAUACGCGAUAACAACUUCGCGUAGAAGGGUGCUCCU [Esvezaza] (puzzle: Same State 1)”, the “apparent KD of MS2 coat protein” value under setting [2] was found to be 14.4 nM, the “apparent KD of MS2 coat protein” value under setting [3] amounted to 12.2 nM and the “apparent KD of MS2 coat protein” value under setting [4] turned out to be 14.4 nM.

In the case of “CGCGGUAAGGAAGGAUAUGGGACGAAAACGUACCUAGAAGGUCCACAUGAGGAUCACCCAUGUACCAAGAAAGCCGCGAAAUUA [Cereraus] (Eterna round: R96, puzzle: Same State NG 1)”, the “apparent KD of MS2 coat protein” value came out at 90.7 nM (input ligand: FMN 200 uM), 276 nM under setting [1] and 410 nM (input ligand: none).

As for “CGCUGUCACGCAGGAUAUGCAUUGGAUUACAAUGCAGAAGGGCGAUCACAUGAGGAUCACCCAUGUGUAGACAGUGAAGAAGAG [MOD2 JMF Solution 3] (Eterna round: R96, puzzle: Same State NG 1)”, the “apparent KD of MS2 coat protein” value is 46.1 nM (input ligand: FMN 200 uM), 479 nM under setting [1] and 480 nM (input ligand: none).

“CGUAGGUAGCUGGAGGAUAUUCGAGUGGUAACAUGAGGAUCACCCAUGUGGAGUUAGGUACAUGAGGAGAAGGCUAGCUGCCUGC [JL-ss2-3.18 JL mod] (puzzle: Same State 2)”: the “apparent KD of MS2 coat protein” value worked out at 10.4 nM under setting [2], 23 nM under setting [3] and 27.4 nM under setting [4].

Regarding “CGUCCGGCCUGAGCUGGACGGUAGCAUGUACAUGAGGAUCACCCAUGUUCAUGUGCAGGCUUUUUGCUCGUCUUGUG [salish99_mir208a_modof_jandersonlee_003] (puzzle: Sensor for hsa-mir-208a)”, the “apparent KD of MS2 coat protein” value was 42.3 nM under setting [2], 10.6 nM under setting [3] and 44.9 nM under setting [4].

“CGUCCGGCCUGUGCUGGCCGGAAGCUUGUACAUGAGGAUCACCCAUGUUCAUGUGCAGGCUUUUUGCUCGUCUUGUG [salish99_mir208a_009] (puzzle: Sensor for hsa-mir-208a)”: the “apparent KD of MS2 coat protein” value under setting [2] was 26.4 nM, the “apparent KD of MS2 coat protein” value under setting [3] came to 30.9 nM and the “apparent KD of MS2 coat protein” value under setting [4] amounted to 32.2 nM.

Take “CGUCCGGCCUGUGCUGGCCGGUAGCUUGUACAUGAGGAUCACCCAUGUUCAUGUGCAGGCUUUUUGCUCGUCUUGUG [salish99_mir208a_014] (puzzle: Sensor for hsa-mir-208a)”: the “apparent KD of MS2 coat protein” value by setting is: under setting [2], 27.9 nM; under setting [3], 29.6 nM; under setting [4], 31.5 nM.

As for “CGUCCGGCCUGUGCUGGCCGGUGGCGUGUACAUGAGGAUCACCCAUGUUCUUGUGCUGGCUGUUUGCUCGUCUUGUG [salish99_mir208a_r3_025] (puzzle: Sensor for hsa-mir-208a)”, the “apparent KD of MS2 coat protein” value runs as follows: under setting [2], 44.8 nM; under setting [3], 23 nM; under setting [4], 58.2 nM.

Take “CGUGAACAUGAGGAUCACCCAUGUGAAAAACAUAGAGGAUAUGUCACGUGAGUGUAAAAGACAGAAGGCUAUCGUG [Mod 3 of Round 1 starryjess' Mod pf Nando] (Eterna round: R96, puzzle: Same State 1)”: the “apparent KD of MS2 coat protein” value by setting is: (input ligand: FMN 200 uM) 38.1 nM; under setting [1], 78.3 nM; (input ligand: none) 77.6 nM.

In the case of “CGUGGGUGGCUGGAGGAUAUUCGAGUGGUAACAUGAGGAUCACCCAUGUGUCGCGCGGUACAUGAGGAGAAGGCUGGCGGCCGGC (puzzle: Same State 2)”, the “apparent KD of MS2 coat protein” value was 225 nM under setting [2], 40.1 nM under setting [3] and 76.2 nM under setting [4].

As to “CUACGAGCGCCACAGGAUAUACUGAGACUCACAUGAGGAUCACCCAUGUCCAAUUCUCCCAAAUAGUAGAAGGGUGACGCGCUCG [Maenve] (Eterna round: R96, puzzle: Same State 2)”, the “apparent KD of MS2 coat protein” value runs as follows: (input ligand: FMN 200 uM) 35.5 nM; under setting [1], 426 nM; (input ligand: none) 562 nM.

On to “CUACGAGCGCCACAGGAUAUACUGAGACUCACAUGAGGAUCACCCAUGUCCAAUUCUCCCAAAUAGUAGAAGGGUGACGCGCUCG [Maenve] (puzzle: Same State 2)”, for which the “apparent KD of MS2 coat protein” value under setting [2] stood at 37.1 nM, the “apparent KD of MS2 coat protein” value under setting [3] came to 480 nM and the “apparent KD of MS2 coat protein” value under setting [4] was 950 nM.
